Assay results from patent US4562175A, “Synthetic peptides” (priority 1984, dated 1985).
Entries after “also recorded” stand apart in the source; their conditions may differ. Values belong to the substance of their own block, whether it stands above or below them. Non-standard residues stand in square brackets, D forms with d. No end group written: not given here. Nle = CCCC[C@H](N)C(=O)O

Tests used:
[1] = Susceptibility to oxidation / loss of biological activity (stability); format: physicochemical
[2] = test system: monolayer rat pituitary cell cultures; assay: GH release from monolayer rat pituitary cell cultures; format: cell-based
Protocol: In vitro analysis of the synthetic peptide: The synthetic Nle^27 -hpGRF was added to the medium of monolayer rat pituitary cell cultures and incubated. After incubation, the media was assayed for GH released from the pituitary cells and compared to control cultures (medium alone). The amount of GH released in response to varying doses of Nle^27 -hpGRF was compared to the GH release induced by the same concentrations of the synthetic hpGRF.

[3] = storage or in a living system; believed to be caused at least partly by oxidation of methionine 27; cited from earlier work

Substance: corticotropin-releasing factor
loss of biological activity through methionine oxidation [1]: Loss of biologic activity

resistance to oxidation ([1]; norleucine at position 27 instead of methionine): resistant to oxidation
Substance: YADAIFTNSYRKVLGQLSARKLLQDI[Nle]SRQQGQSNQERGARARL-NH2 [Nle^27 -hpGRF]
GH-releasing activity (GH released into medium) compared with hpGRF ([2]; varying doses, same concentrations as synthetic hpGRF, tested at the same time under identical conditions): significantly greater biological activity than synthetic hpGRF; also recorded: greater growth hormone-releasing activity than the natural compound; also recorded: greater GH-releasing activity than original hpGRF

Substance: hpGRF: human pancreatic tumor growth hormone-releasing factor, 44 amino acid residues, methionine at position 27
loss of biological activity during storage or when introduced into a living system [3]: drastic loss of biological activity
loss of biological activity through methionine oxidation [1]: drastic loss of biological activity
GH-releasing activity with reducing agent added to the test medium ([2]; L-ascorbic acid added to test medium, compared to medium without reducing agent): enhance the GH-releasing activity
